Measurements: patent US20100280227A1 (Genentech, published 2010)
Where “and” joins values, the source holds several entries; their conditions need not be identical. Equal values may be shown once.

B1: murine monoclonal antibody 9.1 (antibody, V domains shown)
VH: EVKLVESGGGLVQPGGSLRLSCAISGFTVTAYYMSWVRQPPGKALEWLGFIRDKANGYTTEYNPSVKGRFTISRDNSQSIFYLQMNTLRAEDSATYYCAQVRRALDYWGQGTTVTVSA
VL: DIVMSQSPSSLAVSVGEKVTMSCKSSQSLLYSSNQNNYLAWYQQKPGQSPKLLIYWASTRESGVPDRFTGSGSGTDFTLTISSVKAEDLAVYYCQQYYTYPYTFGGGT
notes: mouse hybridoma IgG; also called 9.1 IgG; mu9.1
B2: murine monoclonal antibody 11G9 (antibody, V domains shown)
VH: DVQLQESGPSLVKPSQTLSLTCSVTGDSITSGYWNWIRKFPGNKLEYMGYISYSGSTYYNPSLKSRISITRDTSKNQFYLQLLSVTTEDTATYYCAGLDGLYWYFDVWGAGTLVTVSS
VL: DIVMTQTPLSLPVSLGDQASISCRSSQSLVHSNGNTYLHWYLQKPGQSPKLLIYKVSNRFSGVPDRFSGSGSGTDFTLKISRVEAEDLGVYFCSQSTHVPPFTFGSGT
notes: mouse hybridoma IgG; also called mu11G9
B3: mouse BR3-Fc (Fc fusion)
chain: STGARRLRVRSQRSRDSSVPTQCNQTECFDPLVRNCVSCELFHTPDTGHTSSLEPGTALQPQEGQVTGDKKIVPRDCGCKPCICTVPEVSSVFIFPPKPKDVLTITLTPKVTCVVVDISKDDPEVQFSWFVDDVEVHTAQTQPREEQFNSTFRSVSELPIMHQDWLNGKEFKCRVNSAAFPAPIEKTISKTKGRPKAPQVYTIPPPKEQMAKDKVSLTCMITDFFPEDITVEWQWNGQPAENYKNTQPIMNTNGSYFVYSKLNVQKSNWEAGNTFTCSVLHEGLHNHHTEKSLSHSPGK
notes: (BR3 ECD fused to a murine Fc); also called mBR3-Fc; murine BR3-Fc
B4: murine monoclonal antibody 2.1 (antibody, V domains shown)
VH: EVQLQESGPSLVKPSQTLSLTCSVTGDSITRGYWNWIRKFPGNKLEFMGYINYSGTTYYNPSLKSRISITRDTSKNQYYLQLNSVTTEDTATYYCATPHTYGAMDYWGQGTTLTVSA
VL: DIVLTQSPVSLAVSLGQRATISCRASESVDDYGISFMHWYQQKPGQPPKLLIYRASDLESGIPARFSGSGSGTDFTLTINPVETDDVAIYYCQQTSKDPWTFGGGT
notes: mouse hybridoma IgG; also called 2.1 IgG; mu2.1

How the values were obtained:
[1] = biological target: T1, human BR3 expressed on cells (human, UniProt Q96RJ3 1-184); assay: BJAB cells, competition with biotin-BAFF
T1 construct: whole, on cells; also called BR3 on BJAB cells; cell surface BR3
Method: (§1) The diluted samples were added to the pelleted BJAB cells in 96 well plates as described above. After 45 min incubation on ice, the cells were washed twice with 200 μl cold assay buffer, and streptavidin-HRP (AMDEX, Amersham Biosciences, Piscataway, N.J.) diluted 1/5,000 in assay buffer was added (100 μl/well). The plates were incubated for a final 45 min on ice. After washing twice with cold assay buffer, color was developed using TMB, the reaction was stopped with H₃PO₄, and the plates were read as described above.

[2] = biological target: T2, variant human BR3-Fc fusion; assay: competition ELISA on vhBR3-Fc against biotinylated 9.1
T2 construct: produced in CHO cells; also called vBR3-Fc; vhBR3-Fc

[3] = biological target: T2, variant human BR3-Fc fusion; assay: SPR, vBR3-Fc on chip;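 note: Anti-BR3 antibodies passed over chip-bound BR3-Fc in PBS with 0.05% polysorbate 20, on and off rates fitted together globally to a 1:1 binding model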
Method: After coupling, unoccupied sites on the chip were blocked by injecting 20 μl of 1M ethanolamine, pH 8.5. The running buffer was PBS containing 0.05% polysorbate 20. […] The binding surface was regenerated by injecting 20-30 μl of 10 mM glycine.HCl (pH 1.5). […] Data were analyzed using a 1:1 binding model using global fitting. The association and dissociation rate constants were fitted simultaneously (BIAevaluation software).
A high flow rate was used in order to minimize mass transport effects.

[4] = biological target: T2, variant human BR3-Fc fusion; assay: competition ELISA on vhBR3-Fc against biotinylated 11G9
[5] = biological target: T1, human BR3 expressed on cells; assay: BJAB cell competitive binding assay against biotin-BAFF
Method: BJAB cells, a human Burkitt lymphoma cell line, were cultured in RPMI media supplemented with 10% FBS, penicillin (100 U/ml, Gibco-Invitrogen, Carlsbad, Calif.), streptomycin (100 μg/ml, Gibco), and L-glutamine (10 mM). […] For binding assays, cells were washed with cold assay buffer (phosphate buffered saline (PBS), pH 7.4) containing 1% fetal bovine serum (FBS)). […] The plates containing the cells were centrifuged at 1200 rpm for 5 min at 4° C., and the supernatant was carefully aspirated away from the cell pellets. […] For these experiments, full length antibodies (IgG) were used.
as §1

[6] = biological target: T1, human BR3 expressed on cells; assay: BJAB cell direct binding assay, anti-mouse IgG Fc-HRP
Method: For binding assays, cells were washed with cold assay buffer (phosphate buffered saline (PBS), pH 7.4) containing 1% fetal bovine serum (FBS)). […] The plates containing the cells were centrifuged at 1200 rpm for 5 min at 4° C., and the supernatant was carefully aspirated away from the cell pellets. […] For these experiments, full length antibodies (IgG) were used.
(§2) Direct and competitive binding assays were performed as follows. For the direct binding assay, IgG antibody samples were serially diluted in cold assay buffer to concentrations ranging between 300-0.02 nM. Samples (100 μl) were added to the pelleted cells, and the plates were incubated for 45 min on ice. An additional 100 μl assay buffer was then added to each well, and the plates were centrifuged at 1200 rpm for 5 min at 4° C. After carefully aspirating the supernatant, the cells were washed two additional times with 200 μl assay buffer. An anti-mouse IgG Fc-HRP or goat anti-human IgG Fc-HRP, as appropriate, was diluted 1/10,000 in cold assay buffer was added (100 μl/well, Jackson ImmunoResearch, West Grove, Pa.), and the plates were incubated on ice for 45 min. Following two washes with 200 μl cold assay buffer, tetramethyl benzidine (TMB, Kirkegaard & Perry Laboratories, Gaithersburg, Md.) was added, and color was allowed to develop for 10 min. One hundred microliters 1 M H₃PO₄ was added to stop the reaction. The plates were then read on a microplate reader at 450 nm with a 620 nm reference. In the direct binding assay, the indicated concentrations of mAbs were added to BJAB cells and bound mAb was detected.

[7] = biological target: T1, human BR3 expressed on cells; assay: BJAB cells, direct binding
Method: as §2

[8] = biological target: T3, human BR3 displayed on phage, E23 alanine-scan mutant (human, UniProt Q96RJ3 1-61, limits assumed); assay: shotgun alanine scan of phage-displayed BR3; F against wild type;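 note: Phage-displayed BR3 shotgun alanine libraries, two selection rounds for anti-BR3 antibody binding, normalized to a display selection, F above 1 marks a harmful substitution, below 1 a beneficial one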
T3 construct: One position of the shotgun alanine scan of BR3 on phage
From the text: (§3) At the sites of mutation, wild-type codons were replaced with the corresponding shotgun alanine codon (Weiss, supra). […] Library 1 encoded shotgun codons at positions 17, 18, 20-23, 25, 27, 28, 30, and 33, while library 2 encoded shotgun codons at positions 26, 29, 31, 34, and 36-42. Each library contained 2×10⁹ members, allowing for complete representation of the theoretical diversity (>10⁴-fold excess).
(§4) The display selection was included in order to normalize the anti-BR3 antibody-binding selection for expression differences between library members. Phage eluted from each target were propagated in E. coli XL 1-blue; amplified phage were used for selection against the same target as in the previous round. After two rounds of selection, 48 individual clones from each library and selection were grown in a 96-well format in 400 L of 2YT medium supplemented with carbenicillin and KO7 helper phage.
(§5) F-values were calculated as previously described (Weiss, supra; Gordon, supra). […] Deleterious mutations have ratios >1, while advantageous mutations have ratios <1; boldface indicates a >10-fold effect.

[9] = biological target: human BR3 displayed on phage, mutated at A34 in the alanine scan (human, UniProt Q96RJ3 1-61, limits assumed); assay: as above
From the text: as §3, §4, §5

[10] = biological target: T4, human BR3 displayed on phage, P41 alanine-scan mutant (human, UniProt Q96RJ3 1-61, limits assumed); assay: as above
T4 construct: One position of the shotgun alanine scan of BR3 on phage
From the text: as §3, §4, §5

[11] = biological target: T5, human BR3 displayed on phage, H31 alanine-scan mutant (human, UniProt Q96RJ3 1-61, limits assumed); assay: as above
T5 construct: One position of the shotgun alanine scan of BR3 on phage
From the text: as §3, §4, §5

[12] = biological target: T6, human BR3 displayed on phage, T17 alanine-scan mutant (human, UniProt Q96RJ3 1-61, limits assumed); assay: as above
T6 construct: One position of the shotgun alanine scan of BR3 on phage; the F value gives the effect of this change against wild type; See m1 for the parent
From the text: as §3, §4, §5

[13] = biological target: T7, human BR3 displayed on phage, P21 alanine-scan mutant (human, UniProt Q96RJ3 1-61, limits assumed); assay: as above
T7 construct: One position of the shotgun alanine scan of BR3 on phage
From the text: as §3, §4, §5

[14] = biological target: T8, human BR3 displayed on phage, L37 alanine-scan mutant (human, UniProt Q96RJ3 1-61, limits assumed); assay: as above
T8 construct: One position of the shotgun alanine scan of BR3 on phage
From the text: as §3, §4, §5

[15] = biological target: T9, human BR3 displayed on phage, V20 alanine-scan mutant (human, UniProt Q96RJ3 1-61, limits assumed); assay: as above
T9 construct: One position of the shotgun alanine scan of BR3 on phage
From the text: as §3, §4, §5

[16] = biological target: T10, human BR3 displayed on phage, R30 alanine-scan mutant (human, UniProt Q96RJ3 1-61, limits assumed); assay: as above
T10 construct: One position of the shotgun alanine scan of BR3 on phage
From the text: as §3, §4, §5

[17] = biological target: T11, human BR3 displayed on phage, L27 alanine-scan mutant (human, UniProt Q96RJ3 1-61, limits assumed); assay: as above
T11 construct: One position of the shotgun alanine scan of BR3 on phage
From the text: as §3, §4, §5

[18] = biological target: T12, human BR3 displayed on phage, L38 alanine-scan mutant (human, UniProt Q96RJ3 1-61, limits assumed); assay: as above
T12 construct: One position of the shotgun alanine scan of BR3 on phage
From the text: as §3, §4, §5

[19] = biological target: T13, human BR3 displayed on phage, R39 alanine-scan mutant (human, UniProt Q96RJ3 1-61, limits assumed); assay: as above
T13 construct: One position of the shotgun alanine scan of BR3 on phage
From the text: as §3, §4, §5

[20] = biological target: T14, human BR3 displayed on phage, D26 alanine-scan mutant (human, UniProt Q96RJ3 1-61, limits assumed); assay: as above
T14 construct: One position of the shotgun alanine scan of BR3 on phage
From the text: as §3, §4, §5

[21] = biological target: T15, human BR3 displayed on phage, L28 alanine-scan mutant (human, UniProt Q96RJ3 1-61, limits assumed); assay: as above
T15 construct: One position of the shotgun alanine scan of BR3 on phage
From the text: as §3, §4, §5

[22] = biological target: T16, human BR3 displayed on phage, F25 alanine-scan mutant (human, UniProt Q96RJ3 1-61, limits assumed); assay: as above
T16 construct: One position of the shotgun alanine scan of BR3 on phage
From the text: as §3, §4, §5

[23] = biological target: T17, human BR3 displayed on phage, V33 alanine-scan mutant (human, UniProt Q96RJ3 1-61, limits assumed); assay: as above
T17 construct: One position of the shotgun alanine scan of BR3 on phage
From the text: as §3, §4, §5

[24] = biological target: T18, human BR3 displayed on phage, R42 alanine-scan mutant (human, UniProt Q96RJ3 1-61, limits assumed); assay: as above
T18 construct: One position of the shotgun alanine scan of BR3 on phage
From the text: as §3, §4, §5

[25] = biological target: T19, human BR3 displayed on phage, T40 alanine-scan mutant (human, UniProt Q96RJ3 1-61, limits assumed); assay: as above
T19 construct: One position of the shotgun alanine scan of BR3 on phage
From the text: as §3, §4, §5

[26] = biological target: T20, human BR3 displayed on phage, G36 alanine-scan mutant (human, UniProt Q96RJ3 1-61, limits assumed); assay: as above
T20 construct: One position of the shotgun alanine scan of BR3 on phage
From the text: as §3, §4, §5

[27] = biological target: T21, human BR3 displayed on phage, V29 alanine-scan mutant (human, UniProt Q96RJ3 1-61, limits assumed); assay: as above
T21 construct: One position of the shotgun alanine scan of BR3 on phage
From the text: as §3, §4, §5

[28] = biological target: T22, human BR3 displayed on phage, P18 alanine-scan mutant (human, UniProt Q96RJ3 1-61, limits assumed); assay: as above
T22 construct: One position of the shotgun alanine scan of BR3 on phage
From the text: as §3, §4, §5

[29] = biological target: T23, human BAFF (residues 82-285) (human, UniProt Q9Y275 82-285); assay: BJAB cell competitive binding assay: soluble BR3-Fc keeps biotin-BAFF from BR3 on the cells
T23 construct: range 82-285; also called biotin-BAFF; biotinylated BAFF
T23 sequence (Q9Y275 82-285 limits assumed): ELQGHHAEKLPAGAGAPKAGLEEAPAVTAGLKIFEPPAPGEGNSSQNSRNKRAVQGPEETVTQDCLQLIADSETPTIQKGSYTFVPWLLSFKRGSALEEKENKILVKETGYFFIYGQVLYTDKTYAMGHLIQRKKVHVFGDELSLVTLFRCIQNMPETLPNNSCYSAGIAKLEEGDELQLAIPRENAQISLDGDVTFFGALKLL

[30] = biological target: T24, human BR3 extracellular domain (human, UniProt Q96RJ3 1-61); assay: SPR, IgG on chip, BR3 ECD in solution
T24 construct: biotinylated where used as tracer; also called hBR3-ECD; BR3-ECD

[31] = biological target: T2, variant human BR3-Fc fusion; assay: competition ELISA on vhBR3-Fc against biotinylated 2.1
[32] = biological target: human BR3 displayed on phage, mutated at A22 in the alanine scan (human, UniProt Q96RJ3 1-61, limits assumed); assay: shotgun alanine scan of phage-displayed BR3; F against wild type;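 note: Phage-displayed BR3 shotgun alanine libraries, two selection rounds for anti-BR3 antibody binding, normalized to a display selection, F above 1 marks a harmful substitution, below 1 a beneficial one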
From the text: as §3, §4, §5

[33] = biological target: T24, human BR3 extracellular domain; assay: SPR, BR3 ECD on chip;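 note: Anti-BR3 antibodies passed over the chip at high flow in PBS with 0.05% polysorbate 20, on and off rates fitted together globally to a 1:1 binding model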

Binder	IC50 [1] [nM]	Kd [3]	IC50 (read off the curve) [4] [µg/mL]	IC50 [5] [nM]	EC50 [6] [nM]	EC50 [7] [nM]	F value [8]	F value [9]	F value [10]	F value [11]	F value [12]	F value [13]	F value [14]	F value [15]	F value [16]	F value [17]	F value [18]	F value [19]	F value [20]	F value [21]	further results
B1	1.3	0.61 nM	~0.1	0.86	0.46	0.54	–	–	–	–	–	–	–	–	–	–	–	–	–	–	IC50 (read off the curve) [2]: ~0.6 µg/mL
B2	0.38	–	~0.2	0.29	0.17	0.19	6.9	32	1.7	2.8	0.5	40	0.7	1.1	1.7	1.1	0.9	3.1	8.5	0.4	F value [22]: 38; F value [23]: 24; F value [24]: 0.9; F value [25]: 0.5; F value [26]: 1.8; F value [27]: 1; F value [28]: 0.5
B3	–	–	–	–	–	–	–	–	–	–	–	–	–	–	–	–	–	–	–	–	IC50 [29]: 12.7 nM; binding result [6]: no binding (tested: about 35 ng/ml as the axis is labelled)
B4	0.25	0.08 nM and 0.07 nM	~0.1	–	–	0.16	9.6	62	0.7	0.6	0.6	1.9	0.1	3	10	0.8	0.9	0.5	6.1	0.1	Kd [30]: 0.15 nM; koff [30]: 1.7e-05 s⁻¹; kon [30]: 110000 M⁻¹ s⁻¹; koff [3]: 3.4e-05 s⁻¹ and 3.3e-05 s⁻¹; kon [3]: 440000 M⁻¹ s⁻¹ and 470000 M⁻¹ s⁻¹; IC50 (read off the curve) [31]: ~0.6 µg/mL; F value [32]: 3.2; F value [22]: 49; F value [24]: 1.8; F value [25]: 0.2; F value [27]: 0.5; F value [28]: 0.5; Kd [33]: 0.05 nM; koff [33]: 5.2e-05 s⁻¹; kon [33]: 960000 M⁻¹ s⁻¹
